The values that follow come from patent US20230203197A1 (UNIVERSITE DE TOUR, published 2023).

In assay [1] the target is T1, neutrophil proteinase 3 (PR3), purified native human PR3 (human, UniProt P24158 28-248).
T1 construct: Also used in denatured form in western blot and as the antigen of the EuroImmun anti-PR3 kit; also called native PR3
T1 sequence: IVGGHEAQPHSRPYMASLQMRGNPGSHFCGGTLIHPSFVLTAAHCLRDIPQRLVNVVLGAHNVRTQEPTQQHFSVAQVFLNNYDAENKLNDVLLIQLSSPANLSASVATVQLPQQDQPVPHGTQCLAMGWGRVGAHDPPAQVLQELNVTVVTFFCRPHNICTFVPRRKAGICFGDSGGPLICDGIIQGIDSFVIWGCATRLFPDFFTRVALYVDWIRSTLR
Put plainly: BIACORE (SPR).

The next assay concerns the target T2, BSA (bovine, UniProt P02769).
T2 construct: in the ELISA well; also called Bovine Serum Albumin
As to the kind of experiment: ELISA, compared with coated PR3.

In another assay the target is T3, Cathepsin G (Cath G) (UniProt P08311 21-244).
T3 sequence (looked up): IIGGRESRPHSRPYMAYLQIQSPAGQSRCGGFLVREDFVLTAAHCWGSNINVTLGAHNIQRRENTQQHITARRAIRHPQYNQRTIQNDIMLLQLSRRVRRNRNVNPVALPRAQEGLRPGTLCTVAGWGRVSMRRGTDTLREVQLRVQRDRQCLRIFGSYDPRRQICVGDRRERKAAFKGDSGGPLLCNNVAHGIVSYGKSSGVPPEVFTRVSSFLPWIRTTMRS
As to the kind of experiment: western blot, 4C3 as the primary antibody. The source says:
(§1) To confirm anti-PR3 specificity, 4C3 was used as a primary antibody in western blot (FIGS. 8A and 8B) on protein lysates from neutrophils, HeLa cells (ATCC® CCL-2™) and human PR3.
A general note: Immunoblotting shows a protein as a band on a membrane.

A further assay has as its target T4, Elastase (UniProt P08246 30-247, limits assumed).
T4 sequence (looked up): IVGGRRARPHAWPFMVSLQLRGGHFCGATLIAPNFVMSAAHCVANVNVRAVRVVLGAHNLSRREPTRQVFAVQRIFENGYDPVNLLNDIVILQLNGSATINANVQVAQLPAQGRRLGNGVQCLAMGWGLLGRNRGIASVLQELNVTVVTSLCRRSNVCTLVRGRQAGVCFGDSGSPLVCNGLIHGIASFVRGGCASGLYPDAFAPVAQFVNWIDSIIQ
As to the kind of experiment: western blot, 4C3 as the primary antibody.
Source text: as §1

The target in assay [2] is T5, OVA.
T5 construct: One of the antigens of group m15; also called ovalbumin
T5 chain: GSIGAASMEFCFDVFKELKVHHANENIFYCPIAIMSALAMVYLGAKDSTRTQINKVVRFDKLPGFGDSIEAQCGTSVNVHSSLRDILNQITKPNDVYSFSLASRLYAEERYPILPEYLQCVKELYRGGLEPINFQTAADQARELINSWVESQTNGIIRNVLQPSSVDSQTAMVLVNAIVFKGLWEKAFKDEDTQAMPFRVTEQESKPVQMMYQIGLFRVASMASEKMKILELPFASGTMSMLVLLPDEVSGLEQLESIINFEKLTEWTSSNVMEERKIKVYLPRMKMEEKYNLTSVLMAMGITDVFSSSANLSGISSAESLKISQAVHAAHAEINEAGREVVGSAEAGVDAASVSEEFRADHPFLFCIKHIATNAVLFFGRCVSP
As to the kind of experiment: specificity ELISA on different coated antigens (n=5). (In general: An ELISA detects its analyte on a solid surface through an enzyme-linked reagent.)

The target of assay [3] is T6, peptide 4C3_3.2 of PR3, biotinylated (human, biotinylated (position not given)).
T6 construct: also called peptide 3.2
Put plainly: HTRF: anti-Fab antibody coupled to d2 on 4C3, terbium-streptavidin on the biotinylated peptide; ratio, baseline-corrected. The procedure: The identification of the epitope recognised by the 4C3 antibody was carried out by MabSilico. The first step enabled the PR3 epitope to be modelled using the MabTope method, which consists of the computer prediction of an ordered list of PR3 peptides likely to belong to the epitope from the sequence of the variable part (VH and VL) of 4C3 (FIGS. 4B and 4C). The second step allowed the experimental measurement of the specific binding of a number of these peptides to the antibody. This measurement was made by HTRF (Homogeneous Time Resolved Fluorescence) between an anti-Fab d2-coupled antibody (CisBio™) which binds to the antibody of interest, and a terbium-coupled streptavidin (CisBio™) which binds to the biotinylated peptide (FIG. 4D).

The target of assay [4] is T1, neutrophil proteinase 3 (PR3), purified …. As to the kind of experiment: BIACORE (SPR). This is another data set of the same source. (Surface plasmon resonance follows binding to a sensor surface in real time, without labels.)
The target in assay [5] is T5, OVA. Put plainly: ELISA, compared with coated PR3.

Read-outs that look alike come from different tables or passages of the source.

T2 sequence (P02769 25-607 limits assumed): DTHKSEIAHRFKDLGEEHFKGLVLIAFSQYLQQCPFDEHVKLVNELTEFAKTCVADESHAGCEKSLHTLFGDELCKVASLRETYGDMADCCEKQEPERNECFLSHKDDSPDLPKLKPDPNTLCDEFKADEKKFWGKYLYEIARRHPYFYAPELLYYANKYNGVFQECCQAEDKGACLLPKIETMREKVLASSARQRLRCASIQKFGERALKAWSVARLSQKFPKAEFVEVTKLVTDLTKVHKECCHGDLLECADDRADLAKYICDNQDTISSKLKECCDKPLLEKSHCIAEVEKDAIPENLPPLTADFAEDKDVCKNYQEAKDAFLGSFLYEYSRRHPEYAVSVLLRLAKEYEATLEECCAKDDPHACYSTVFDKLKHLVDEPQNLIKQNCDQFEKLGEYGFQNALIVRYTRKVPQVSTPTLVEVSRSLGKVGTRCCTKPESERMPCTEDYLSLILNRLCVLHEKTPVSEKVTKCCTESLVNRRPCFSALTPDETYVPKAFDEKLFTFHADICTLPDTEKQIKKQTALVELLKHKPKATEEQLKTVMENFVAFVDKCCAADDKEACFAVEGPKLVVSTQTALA

B1: human monoclonal anti-proteinase 3 (PR3) 4C3 antibody, G1m3-1 allotype (antibody, human IgG1, kappa)
heavy: not shown
light: DIQMTQSPPTLSASVGDRVTITCRASQSISDWLAWYQQKPGKPPQLLIYKASSLESGVPSRFSGTGSGAEFTLTISSLQPDDSATYYCQQYNSYSNTFGQGTKLEIKRTVAAPSVFIFPPSDEQLKSGTASVVCLLNNFYPREAKVQWKVDNALQSGNSQESVTEQDSKDSTYSLSSTLTLSKADYEKHKVYACEVTHQGLSSPVTKSFNRGEC
notes: also called MAb 4C3; AcMo 4C3
Usually Kd stands for the constant that tells how readily two partners part at equilibrium. In general, koff refers to the rate constant with which the complex falls apart. The low end stands for a long-lived complex, the high end for a short-lived complex. Usually kon stands for the second-order rate constant of association. The low end stands for slow association, the high end for fast association. Turning to B1, in assay [1], the Kd worked out at 741 pM. The koff in assay [1] came out at 0.00936 s⁻¹. Besides, the kon in assay [1] is 1.26e+07 M⁻¹ s⁻¹. Moreover, the binding result with BSA is recorded as “no binding”; with Cathepsin G (Cath G), “no binding (tested: 5 µg per lane)”; with Elastase it was “no binding (tested: 5 µg per lane)”; with OVA [2], “no binding”; in assay [3], “binds”.

B2: recombinant 4C3 antibody (r4C3), G1m17-1 allotype (antibody, human IgG1, kappa)
heavy: not shown
light: B1 light
notes: Produced in HEK-293 cells; differs from 4C3 only by R>K at position 224 of the heavy chain constant region
In assay [4], B2 yielded an equilibrium dissociation constant (Kd) of 684 pM, a koff of 0.00936 s⁻¹ and a kon of 1.37e+07 M⁻¹ s⁻¹. In the assay with OVA [5], the binding result is recorded as “no binding (tested: 1 µg/ml (coating of Ova))”. Also, the binding result in the assay with BSA is “no binding”.
